Among the data in PMC4433263, “Identification of Rv3852 as an Agrimophol-Binding Protein in Mycobacterium tuberculosis” (PLoS ONE, 2015) are binding values, retold here.

In one series the target is Rv2466c (UniProt O53193). Briefly: EMSA. The following applies: binding buffer and pH not stated ([…].
Series [1] addresses T1, Rv3852 (Mycobacterium tuberculosis H37Rv) (UniProt I6YHB0).
T1 sequence: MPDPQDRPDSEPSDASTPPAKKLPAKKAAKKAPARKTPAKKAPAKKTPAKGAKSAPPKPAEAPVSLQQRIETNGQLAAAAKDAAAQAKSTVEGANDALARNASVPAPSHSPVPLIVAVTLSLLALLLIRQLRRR
Briefly: EMSA. The following applies: binding buffer and pH not stated ([…]. Background: In EMSA bound probe runs differently from free probe, usually more slowly.

Sequence of Rv2466c (O53193 whole entry): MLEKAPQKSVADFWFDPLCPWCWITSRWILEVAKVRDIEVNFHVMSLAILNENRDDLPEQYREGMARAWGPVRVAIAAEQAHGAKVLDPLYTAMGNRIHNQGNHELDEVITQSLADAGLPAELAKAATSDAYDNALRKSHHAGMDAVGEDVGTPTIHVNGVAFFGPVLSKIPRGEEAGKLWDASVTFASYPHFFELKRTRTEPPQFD

On to “AATTCCGGCGCCTTCCCGGGCCGGAAGCCGGGCAGCCGCACCTGTTTGGCCAGCTCTTTGTAGGCCCGCTGGAAATCCGGCTCAAGCTCGGCGAATGGCACCTCCACGTTGATACGAACCCGGGTGGGGCTCAACTGCTCGACGGTGCTCTTCACGGGTGTGCTCCTTGGTAGTCGATAACGGCGGTCGGCTGGTCGGGGTGACAGGATTTGAACCTGCGGCCTTCCGCTCCCAAAGCGGATGCGCTACCAAGCTGCGCTACACCCCGCGCTGACCTCGCGATCCTACG / AATTCGTAGGATCGCGAGGTCAGCGCGGGGTGTAGCGCAGCTTGGTAGCGCATCCGCTTTGGGAGCGGAAGGCCGCAGGTTCAAATCCTGTCACCCCGACCAGCCGACCGCCGTTATCGACTACCAAGGAGCACACCCGTGAAGAGCACCGTCGAGCAGTTGAGCCCCACCCGGGTTCGTATCAACGTGGAGGTGCCATTCGCCGAGCTTGAGCCGGATTTCCAGCGGGCCTACAAAGAGCTGGCCAAACAGGTGCGGCTGCCCGGCTTCCGGCCCGGGAAGGCGCCGG [proU2]”, for which the binding result is on record as “no binding” in the series with Rv2466c and “binds” in series [1].
